Numbering of substitutions follows the chain as printed. Names and notes keep the numbering of the source.
Biological target: receptor-binding domain (RBD) of SARS-CoV-2 prototype strain (SARS-CoV-2 prototype strain, UniProt P0DTC2)
Assay: SPR

B1: Tnb04-1 R50Q (nanobody-Fc) (Fc fusion)
chain: EVQLVESGGGLVQPGGSLRLSCAASGSISTLNVMGWYRQAPGKQRELVAQITLDGRPEYADSVKGRFTITKDGAQSTLYLQMNNLKPEDTAVYFCKLENGGFFYYWGQGTQVTVSS
  Kd: 471 pM

B2: Tnb04-1 R56S (nanobody-Fc) (Fc fusion)
chain: B1 chain with Q50R, R56S
  Kd: 535 pM

Reference: PMC11554226 (2024)
